For orientation: Kd means a measure of binding affinity in units of concentration. The stoichiometry N is the number of molecules, sites or subunits per partner or assembly.

The target in assay [1] is human HVEM (L39-C162) expressed in Drosophila S2 cells (human) (UniProt Q92956). Nature of the assay: SPR. On the technique in general: Surface plasmon resonance follows binding to a sensor surface in real time, without labels.
In assay [2] the target is human LIGHT (L83-V240) expressed in Drosophila S2 cells (human, UniProt O43557 83-240). Put plainly: SEC.
Assay [3] addresses T1, HVEM part of the single-chain human CD160-HVEM (sc_CD160:HVEM) (human, UniProt Q92956 39-143).
T1 sequence: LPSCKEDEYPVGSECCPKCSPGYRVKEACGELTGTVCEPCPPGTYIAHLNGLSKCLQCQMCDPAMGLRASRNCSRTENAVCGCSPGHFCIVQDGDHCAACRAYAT
Nature of the assay: crystal structure.

human LIGHT (L83-V240) expressed in Drosophila S2 cells, sequence (O43557 83-240): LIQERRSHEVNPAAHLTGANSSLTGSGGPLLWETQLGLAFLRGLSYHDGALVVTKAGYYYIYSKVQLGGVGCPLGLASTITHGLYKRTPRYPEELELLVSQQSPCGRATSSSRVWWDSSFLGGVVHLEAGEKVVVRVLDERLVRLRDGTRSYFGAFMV

Take “refolded human CD160 ectodomain (residues I27-K144) (from UniProt O95971 27-144) (domain or fragment)”: in assay [1], the Kd is 7.1 µM.

In turn, “human CD160 ectodomain (I27-L158) expressed in Drosophila S2 cells (from UniProt O95971 27-158) (domain or fragment)” gave a Kd in assay [1] of 6.7 µM.

B1: human HVEM (L39-C162) expressed in Drosophila S2 cells (receptor, UniProt Q92956 39-162, looked up)
chain: LPSCKEDEYPVGSECCPKCSPGYRVKEACGELTGTVCEPCPPGTYIAHLNGLSKCLQCQMCDPAMGLRASRNCSRTENAVCGCSPGHFCIVQDGDHCAACRAYATSSPGQRVQKGGTESQDTLC
Turning to B1, the binding result in assay [2] is “binds”.

B2: CD160 part of the single-chain human CD160-HVEM (sc_CD160:HVEM) (domain or fragment)
chain: INITSSASQEGTRLNLICTVWHKKEEAEGFVVFLCKDRSGDCSPETSLKQLRLKRDPGIDGVGEISSQLMFTISQVTPLHSGTYQCCARSQKSGIRLQGHFFSILFTETGNYTVTGLK
modifications: glycosylated
Take B2: in assay [3], the “stoichiometry N” value was determined as 1.

(Values after paper PMC7477951 (Structure (London, England : 1993), 2019).)
